Reference: patent US20240294617A1 (Ablynx, published 2024)
Changes are numbered by the printed parent chain.

Tests used:
[1] = molecular target: T1, human serum albumin (Sigma-Aldrich A3782) (human, UniProt P02768 25-609); assay: SPR (ProteOn), HSA immobilised, 500 nM injected, dissociation at pH 7.4
T1 construct: Bought protein; also called HSA; human SA

[2] = molecular target: T1, human serum albumin (Sigma-Aldrich …); assay: SPR (ProteOn), HSA immobilised, 500 nM injected, dissociation at pH 6.0
[3] = molecular target: T1, human serum albumin (Sigma-Aldrich …); assay: SPR (ProteOn), HSA immobilised, 500 nM injected, dissociation at pH 5.0
[4] = molecular target: T2, guinea pig serum albumin (Gentaur GPSA62) (guinea pig); assay: SPR (ProteOn XPR36), SA immobilised, pH 7.4
T2 construct: also called guinea pig SA

[5] = molecular target: T3, pig serum albumin (Sigma-Aldrich A4414) (pig, UniProt P08835 25-607); assay: SPR (ProteOn XPR36), SA immobilised, pH 7.4
T3 construct: Bought protein; also called pig SA

[6] = molecular target: T4, rat serum albumin (Sigma-Aldrich A4538) (rat, UniProt P02770 25-608); assay: SPR (ProteOn XPR36), SA immobilised, pH 7.4
T4 construct: Bought protein; also called rat SA

[7] = molecular target: T5, cynomolgus monkey serum albumin (generated in-house) (cynomolgus monkey, UniProt A2V9Z4 25-608, limits assumed); assay: SPR (ProteOn XPR36), SA immobilised, pH 7.4
T5 construct: also called cyno SA

[8] = molecular target: T1, human serum albumin (Sigma-Aldrich …); assay: SPR (ProteOn XPR36), SA immobilised, pH 7.4
[9] = molecular target: T6, dog serum albumin (Abcam 119814) (dog, UniProt P49822 25-608); assay: SPR (ProteOn XPR36), SA immobilised, pH 7.4
T6 construct: Bought protein; also called dog SA

[10] = molecular target: T7, mouse serum albumin (Albumin Bioscience 2601) (mouse, UniProt P07724 25-608); assay: SPR (ProteOn XPR36), SA immobilised, pH 7.4
T7 construct: Bought protein; also called mouse SA

[11] = molecular target: T1, human serum albumin (Sigma-Aldrich …); assay: competition ELISA on coated HSA

B1: serum albumin binder of SEQ ID NO:19 (invention) (VHH)
VHH: EVQLVESGGGVVQPGGSLRLSCAASGSTISSYVMGWFRRAPGKEREFVAAISRSGGYTYYADSVKGRFTISRDNSKKTAYLQMNSLRPEDTALYYCAAGRYSAWYSQSYEYDYWGQGTLVTVSS
notes: Monovalent Nanobody; also called T023500043
- koff [1]: 6e-05 s⁻¹
- koff [2]: 6.7e-05 s⁻¹
- koff [3]: 7.5e-05 s⁻¹
- Kd [4]: 0.059 nM
- koff [4]: 5.6e-05 s⁻¹
- kon [4]: 940000 M⁻¹ s⁻¹
- Kd [5]: 290 nM
- koff [5]: 0.036 s⁻¹
- kon [5]: 120000 M⁻¹ s⁻¹
- Kd [6]: 0.012 nM
- koff [6]: 1.5e-05 s⁻¹
- kon [6]: 1.2e+06 M⁻¹ s⁻¹
- Kd [7]: 0.016 nM
- koff [7]: 1.4e-05 s⁻¹
- kon [7]: 830000 M⁻¹ s⁻¹
- Kd [8]: 0.046 nM
- koff [8]: 3.7e-05 s⁻¹
- kon [8]: 790000 M⁻¹ s⁻¹
- Kd [9]: 2.8 nM
- koff [9]: 0.0025 s⁻¹
- kon [9]: 900000 M⁻¹ s⁻¹
- Kd [10]: 0.016 nM
- koff [10]: 1.5e-05 s⁻¹
- kon [10]: 940000 M⁻¹ s⁻¹

B2: His6Flag3-SEQ ID NO:20 (VHH, not shown: small tags and cut ends)
VHH: B1 VHH with T28N
- binding result [11]: binds
